The data set has as its system HeLa Kyoto. The experiment in a line: melting temperature (median over replicates), in situ; higher = more thermally stable.
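Further: HeLa Kyoto cells synchronized by double thymidine or nocodazole block, proteins quantified by TMT10plex mass spectrometry, three independent biological replicates.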

Where the note is “cell cycle stage: mitosis”, “MAGSEPRSGTNSPPPPFSDWGRLEAAILSGWKTFWQSVSKERVARTTSREEVDEAASTLTRLPIDVQLYILSFLSPHDLCQLGSTNHYWNETVRDPILWRYFLLRDLPSWSSVDWKSLPDLEILKKPISEVTDGAFFDYMAVYRMCCPYTRRASKSSRPMYGAVTSFLHSLIIQNEPRFAMFGPGLEELNTSLVLSLMSSEELCPTAGLPQRQIDGIGSGVNFQLNNQHKFNILILYSTTRKERDRAREEHTSAVNKMFSRHNEGDDQQGSRYSVIPQIQKVCEVVDGFIYVANAEAHKRHEWQDEFSHIMAMTDPAFGSSGRPLLVLSCISQGDVKRMPCFYLAHELHLNLLNHPWLVQDTEAETLTGFLNGIEWILEEVESKRAR [FBXO4]” gave a melting temperature of 52 °C.
For “MAGYEYVSPEQLAGFDKYKYSAVDTNPLSLYVMHPFWNTIVKVFPTWLAPNLITFSGFLLVVFNFLLMAYFDPDFYASAPGHKHVPDWVWIVVGILNFVAYTLDGVDGKQARRTNSSTPLGELFDHGLDSWSCVYFVVTVYSIFGRGSTGVSVFVLYLLLWVVLFSFILSHWEKYNTGILFLPWGYDISQVTISFVYIVTAVVGVEAWYEPFLFNFLYRDLFTAMIIGCALCVTLPMSLLNFFRSYKNNTLKLNSVYEAMVPLFSPCLLFILSTAWILWSPSDILELHPRVFYFMVGTAFANSTCQLIVCQMSSTRCPTLNWLLVPLFLVVLVVNLGVASYVESILLYTLTTAFTLAHIHYGVRVVKQLSSHFQIYPFSLRKPNSDULGMEEKNIGL [EPT1]”, the melting temperature (cell cycle stage: G1/S) was 52.8 °C.
Take “MAIFRQLSLGAKATLAAVTVFVSMIASRSYLAESLELRAWRWLLRLQLALFVNSLLLIGSLYIWRSTVSNLCHSPAAESTCFQLWKVVVLAFLALAHSSFFTMFFLVAEEPYLFSLAAYSCLGAYIIMLFFLFILSGMEQAYQLLAWRSGRVVGSLEKTRKLVLRPALAVGVTAVLSVAGILNAAQPPAVKTVEVPIHQLPASMNNLKIVLLSDIHLGPTVGRTKMEMFVRMVNVLEPDITVIVGDLSDSEASVLRTAVAPLGQLHSHLGAYFVTGNHEYYTSDVSNWFALLESLHVQPLHNENVKISATRAQRGGGGSGSGSEDEDWICLAGVDDIEADILHYSGHGMDLDKALEGCSPDHTIILLAHQPLAAKRALQARPDINLILSGHTHAGQIFPLNVAAYLLNPFFAGLYQVAQATFVYVSPGTAYYGIPMRLGSRAEITELILQRSP [TMPPE]”: the melting temperature (cell cycle stage: G1/S) amounted to 53.6 °C and the melting temperature (cell cycle stage: mitosis) was determined as 53.6 °C.
As to “MALNGAEVDDFSWEPPTEAETKVLQARRERQDRISRLMGDYLLRGYRMLGETCADCGTILLQDKQRKIYCVACQELDSDVDKDNPALNAQAALSQAREHQLASASELPLGSRPAPQPPVPRPEHCEGAAAGLKAAQGPPAPAVPPNTDVMACTQTALLQKLTWASAELGSSTSLETSIQLCGLIRACAEALRSLQQLQH [SSSCA1]”, the melting temperature runs as follows: (cell cycle stage: G1/S) 53.3 °C; (cell cycle stage: mitosis) 53.5 °C.
Consider “MAPGRAVAGLLLLAAAGLGGVAEGPGLAFSEDVLSVFGANLSLSAAQLQHLLEQMGAASRVGVPEPGQLHFNQCLTAEEIFSLHGFSNATQITSSKFSVICPAVLQQLNFHPCEDRPKHKTRPSHSEVWGYGFLSVTIINLASLLGLILTPLIKKSYFPKILTFFVGLAIGTLFSNAIFQLIPEAFGFDPKVDSYVEKAVAVFGGFYLLFFFERMLKMLLKTYGQNGHTHFGNDNFGPQEKTHQPKALPAINGVTCYANPAVTEANGHIHFDNVSVVSLQDGKKEPSSCTCLKGPKLSEIGTIAWMITLCDALHNFIDGLAIGASCTLSLLQGLSTSIAILCEEFPHELGDFVILLNAGMSTRQALLFNFLSACSCYVGLAFGILVGNNFAPNIIFALAGGMFLYISLADMFPEMNDMLREKVTGRKTDFTFFMIQNAGMLTGFTAILLITLYAGEIELE [SLC39A8]”, for which, where the note is “cell cycle stage: G1/S”, the melting temperature stood at 58.6 °C.
Regarding “MASKTKASEALKVVARCRPLSRKEEAAGHEQILTMDVKLGQVTLRNPRAAPGELPKTFTFDAVYDASSKQADLYDETVRPLIDSVLQGFNGTVFAYGQTGTGKTYTMQGTWVEPELRGVIPNAFEHIFTHISRSQNQQYLVRASYLEIYQEEIRDLLSKEPGKRLELKENPETGVYIKDLSSFVTKNVKEIEHVMNLGNQTRAVGSTHMNEVSSRSHAIFIITVECSERGSDGQDHIRVGKLNLVDLAGSERQNKAGPNTAGGAATPSSGGGGGGGGSGGGAGGERPKEASKINLSLSALGNVIAALAGNRSTHIPYRDSKLTRLLQDSLGGNAKTIMVATLGPASHSYDESLSTLRFANRAKNIKNKPRVNEDPKDTLLREFQEEIARLKAQLEKRGMLGKRPRRKSSRRKKAVSAPPGYPEGPVIEAWVAEEEDDNNNNHRPPQPILESALEKNMENYLQEQKERLEEEKAAIQDDRSLVSEEKQKLLEEKEKMLEDLRREQQATELLAAKYKAMESKLLIGGRNIMDHTNEQQKMLELKRQEIAEQKRREREMQQEMMLRDEETMELRGTYTSLQQEVEVKTKKLKKLYAKLQAVKAEIQDQHDEYIRVRQDLEEAQNEQTRELKLKYLIIENFIPPEEKNKIMNRLFLDCEEEQWKFQPLVPAGVSSSQMKKRPTSAVGYKRPISQYARVAMAMGSHPRYRAENIMFLELDVSPPAVFEMEFSHDQEQDPRALHMERLMRLDSFLERPSTSKVRKSRSWCQSPQRPPPSTTHASLASASLRPATVADHE [KIF3C]”, where the note is “cell cycle stage: mitosis”, the melting temperature was determined as 50.4 °C.
As for “MCVRSCFQSPRLQWVWRTAFLKHTQRRHQGSHRWTHLGGSTYRAVIFDMGGVLIPSPGRVAAEWEVQNRIPSGTILKALMEGGENGPWMRFMRAEITAEGFLREFGRLCSEMLKTSVPVDSFFSLLTSERVAKQFPVMTEAITQIRAKGLQTAVLSNNFYLPNQKSFLPLDRKQFDVIVESCMEGICKPDPRIYKLCLEQLGLQPSESIFLDDLGTNLKEAARLGIHTIKVNDPETAVKELEALLGFTLRVGVPNTRPVKKTMEIPKDSLQKYLKDLLGIQTTGPLELLQFDHGQSNPTYYIRLANRDLVLRKKPPGTLLPSAHAIEREFRIMKALANAGVPVPNVLDLCEDSSVIGTPFYVMEYCPGLIYKDPSLPGLEPSHRRAIYTAMNTVLCKIHSVDLQAVGLEDYGKQGDYIPRQVRTWVKQYRASETSTIPAMERLIEWLPLHLPRQQRTTVVHGDFRLDNLVFHPEEPEVLAVLDWELSTLGDPLADVAYSCLAHYLPSSFPVLRGINDCDLTQLGIPAAEEYFRMYCLQMGLPPTENWNFYMAFSFFRVAAILQGVYKRSLTGQASSTYAEQTGKLTEFVSNLAWDFAVKEGFRVFKEMPFTNPLTRSYHTWARPQSQWCPTGSRSYSSVPEASPAHTSRGGLVISPESLSPPVRELYHRLKHFMEQRVYPAEPELQSHQASAARWSPSPLIEDLKEKAKAEGLWNLFLPLEADPEKKYGAGLTNVEYAHLCELMGTSLYAPEVCNCSAPDTGNMELLVRYGTEAQKARWLIPLLEGKARSCFAMTEPQVASSDATNIEASIREEDSFYVINGHKWWITGILDPRCQLCVFMGKTDPHAPRHRQQSVLLVPMDTPGIKIIRPLTVYGLEDAPGGHGEVRFEHVRVPKENMVLGPGRGFEIAQGRLGPGRIHHCMRLIGFSERALALMKARVKSRLAFGKPLVEQGTVLADIAQSRVEIEQARLLVLRAAHLMDLAGNKAAALDIAMIKMVAPSMASRVIDRAIQAFGAAGLSSDYPLAQFFTWARALRFADGPDEVHRATVAKLELKHRI [ACAD10]”, for the setting “cell cycle stage: mitosis”, the melting temperature is 50.7 °C.
The sequence “MDCEVNNGSSLRDECITNLLVFGFLQSCSDNSFRRELDALGHELPVLAPQWEGYDELQTDGNRSSHSRLGRIEADSESQEDIIRNIARHLAQVGDSMDRSIPPGLVNGLALQLRNTSRSEEDRNRDLATALEQLLQAYPRDMEKEKTMLVLALLLAKKVASHTPSLLRDVFHTTVNFINQNLRTYVRSLARNGMD [BID]” yielded a melting temperature (cell cycle stage: G1/S) of 52.8 °C and a melting temperature (cell cycle stage: mitosis) of 55.5 °C.
The sequence “MENGAVYSPTTEEDPGPARGPRSGLAAYFFMGRLPLLRRVLKGLQLLLSLLAFICEEVVSQCTLCGGLYFFEFVSCSAFLLSLLILIVYCTPFYERVDTTKVKSSDFYITLGTGCVFLLASIIFVSTHDRTSAEIAAIVFGFIASFMFLLDFITMLYEKRQESQLRKPENTTRAEALTEPLNA [CMTM6]” yielded a melting temperature (cell cycle stage: G1/S) of 55.6 °C.
Same read-out and setting: under “MESMAVATDGGERPGVPAGSGLSASQRRAELRRRKLLMNSEQRINRIMGFHRPGSGAEEESQTKSKQQDSDKLNSLSVPSVSKRVVLGDSVSTGTTDQQGGVAEVKGTQLGDKLDSFIKPPECSSDVNLELRQRNRGDLTADSVQRGSRHGLEQYLSRFEEAMKLRKQLISEKPSQEDGNTTEEFDSFRIFRLVGCALLALGVRAFVCKYLSIFAPFLTLQLAYMGLYKYFPKSEKKIKTTVLTAALLLSGIPAEVINRSMDTYSKMGEVFTDLCVYFFTFIFCHELLDYWGSEVP [CAMLG]” stands 57.8 °C.
Regarding “MGFIFSKSMNESMKNQKEFMLMNARLQLERQLIMQSEMRERQMAMQIAWSREFLKYFGTFFGLAAISLTAGAIKKKKPAFLVPIVPLSFILTYQYDLGYGTLLERMKGEAEDILETEKSKLQLPRGMITFESIEKARKEQSRFFIDK [PLGRKT]”, the melting temperature is, setting by setting: (cell cycle stage: G1/S) 56.5 °C; (cell cycle stage: mitosis) 55.5 °C.
Turning to “MGGCVGAQHDSSGSLNENSEGTGVALGRNQPLKKEKPKWKSDYPMTDGQLRSKRDEFWDTAPAFEGRKEIWDALKAAAHAFESNDHELAQAIIDGANITLPHGALTECYDELGNRYQLPVYCLAPPINMIEEKSDIETLDIPEPPPNSGYECQLRLRLSTGKDLKLVVRSTDTVFHMKRRLHAAEGVEPGSQRWFFSGRPLTDKMKFEELKIPKDYVVQVIVSQPVQNPTPVEN [UBTD2]”, the melting temperature (cell cycle stage: mitosis) came to 53.7 °C.
For “MGRLLRAARLPPLLSPLLLLLVGGAFLGACVAGSDEPGPEGLTSTSLLDLLLPTGLEPLDSEEPSETMGLGAGLGAPGSGFPSEENEESRILQPPQYFWEEEEELNDSSLDLGPTADYVFPDLTEKAGSIEDTSQAQELPNLPSPLPKMNLVEPPWHMPPREEEEEEEEEEEREKEEVEKQEEEEEEELLPVNGSQEEAKPQVRDFSLTSSSQTPGATKSRHEDSGDQASSGVEVESSMGPSLLLPSVTPTTVTPGDQDSTSQEAEATVLPAAGLGVEFEAPQEASEEATAGAAGLSGQHEEVPALPSFPQTTAPSGAEHPDEDPLGSRTSASSPLAPGDMELTPSSATLGQEDLNQQLLEGQAAEAQSRIPWDSTQVICKDWSNLAGKNYIILNMTENIDCEVFRQHRGPQLLALVEEVLPRHGSGHHGAWHISLSKPSEKEQHLLMTLVGEQGVVPTQDVLSMLGDIRRSLEEIGIQNYSTTSSCQARASQVRSDYGTLFVVLVVIGAICIIIIALGLLYNCWQRRLPKLKHVSHGEELRFVENGCHDNPTLDVASDSQSEMQEKHPSLNGGGALNGPGSWGALMGGKRDPEDSDVFEEDTHL [PODXL2]”, the melting temperature (cell cycle stage: G1/S) worked out at 54 °C.
Sequence “MLGSRAAGFARGLRAVALAWLPGWRGRSFALARAAGAPHGGDLQPPACPEPRGRQLSLSAAAVVDSAPRPLQPYLRLMRLDKPIGTWLLYLPCTWSIGLAAEPGCFPDWYMLSLFGTGAILMRGAGCTINDMWDQDYDKKVTRTANRPIAAGDISTFQSFVFLGGQLTLALGVLLCLNYYSIALGAGSLLLVITYPLMKRISYWPQLALGLTFNWGALLGWSAIKGSCDPSVCLPLYFSGVMWTLIYDTIYAHQDKRDDVLIGLKSTALRFGENTKPWLSGFSVAMLGALSLVGVNSGQTAPYYAALGAVGAHLTHQIYTLDIHRPEDCWNKFISNRTLGLIVFLGIVLGNLWKEKKTDKTKKGIENKIEN [COQ2]” showed a melting temperature (cell cycle stage: G1/S) of 55.1 °C.

The values above are taken from the supplement of paper PMC5998384.
